Test results as given in the supplement of paper PMC10065799, “High-throughput profiling of sequence recognition by tyrosine kinases and SH2 domains using bacterial peptide display” (eLife, 2023).
Blank lines part the entries; values can stand above or below the sequence they belong to.

What was measured:
AncSZ = test: phosphorylation enrichment, bacterial display (enrichment ratio); higher = better substrate or ligand; peptides without Tyr show the background
EPHB1 = EPHB1 (UniProt P54762); test: as above
EPHB2 = EPHB2 (UniProt P29323); test: as above
FGFR1 = FGFR1 (UniProt P11362); test: as above
FGFR3 = FGFR3 (UniProt P22607); test: as above
Fer (mouse) = test: as above
Fes = Fes (UniProt P07332); test: as above
Fyn = Fyn (UniProt P06241); test: as above
Hck = Hck (UniProt P08631); test: as above
Jak2 = Jak2 (UniProt O60674); test: as above
MERTK = MERTK (UniProt Q12866); test: as above
c-Abl (mouse) = test: as above
c-Src = test: as above
Grb2 SH2 = Grb2 SH2 (UniProt P62993); test: SH2 binding enrichment of the phosphorylated peptide, bacterial display (enrichment ratio); higher = better substrate or ligand; peptides without Tyr show the background
SHP2-C SH2 = test: as above
c-Src SH2 = test: as above
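Wherever SH2 binding enrichment of the phosphorylated peptide, bacterial display is given: peptide library displayed on the E. coli surface as eCPX fusions, selected cells deep-sequenced, score is each peptide's frequency after selection divided by its frequency in the input.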
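Wherever phosphorylation enrichment, bacterial display is given: 11-residue human phosphosite peptides and single-mutation variants displayed on the E. coli surface, counted by deep sequencing, each peptide's frequency after selection divided by its frequency in the unselected input library; frequency after pTyr selection over input frequency; kinase dosed for 20-30% of maximal phosphorylation in three min.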

Chain of EPHB2 (P29323 whole entry, looked up): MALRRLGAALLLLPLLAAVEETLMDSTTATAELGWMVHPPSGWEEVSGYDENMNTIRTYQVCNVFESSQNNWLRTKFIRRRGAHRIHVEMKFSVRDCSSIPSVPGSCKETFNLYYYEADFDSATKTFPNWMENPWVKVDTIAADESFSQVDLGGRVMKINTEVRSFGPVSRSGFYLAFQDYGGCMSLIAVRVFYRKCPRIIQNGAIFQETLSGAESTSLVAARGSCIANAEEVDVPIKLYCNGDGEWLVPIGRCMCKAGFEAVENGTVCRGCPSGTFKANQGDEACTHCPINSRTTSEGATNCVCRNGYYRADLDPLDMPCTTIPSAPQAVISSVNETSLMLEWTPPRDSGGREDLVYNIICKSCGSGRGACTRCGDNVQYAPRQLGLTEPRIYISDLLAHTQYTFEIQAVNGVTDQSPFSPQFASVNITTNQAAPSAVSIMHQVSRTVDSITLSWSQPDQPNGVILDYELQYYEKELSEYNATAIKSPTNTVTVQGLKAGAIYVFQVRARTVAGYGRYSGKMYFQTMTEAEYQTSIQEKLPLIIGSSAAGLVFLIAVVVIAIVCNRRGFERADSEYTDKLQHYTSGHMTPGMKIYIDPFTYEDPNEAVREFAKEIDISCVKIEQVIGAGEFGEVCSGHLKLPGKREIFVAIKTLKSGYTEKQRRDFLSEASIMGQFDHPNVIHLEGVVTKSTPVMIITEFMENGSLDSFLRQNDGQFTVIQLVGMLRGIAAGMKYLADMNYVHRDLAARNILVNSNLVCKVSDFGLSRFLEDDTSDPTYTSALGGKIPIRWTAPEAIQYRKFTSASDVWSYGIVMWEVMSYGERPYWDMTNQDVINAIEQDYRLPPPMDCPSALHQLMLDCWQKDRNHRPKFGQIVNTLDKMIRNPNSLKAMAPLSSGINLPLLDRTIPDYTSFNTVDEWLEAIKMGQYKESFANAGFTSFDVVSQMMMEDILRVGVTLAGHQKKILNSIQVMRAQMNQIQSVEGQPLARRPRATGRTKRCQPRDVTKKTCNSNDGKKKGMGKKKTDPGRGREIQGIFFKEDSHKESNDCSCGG
Chain of FGFR3 (P22607 whole entry, looked up): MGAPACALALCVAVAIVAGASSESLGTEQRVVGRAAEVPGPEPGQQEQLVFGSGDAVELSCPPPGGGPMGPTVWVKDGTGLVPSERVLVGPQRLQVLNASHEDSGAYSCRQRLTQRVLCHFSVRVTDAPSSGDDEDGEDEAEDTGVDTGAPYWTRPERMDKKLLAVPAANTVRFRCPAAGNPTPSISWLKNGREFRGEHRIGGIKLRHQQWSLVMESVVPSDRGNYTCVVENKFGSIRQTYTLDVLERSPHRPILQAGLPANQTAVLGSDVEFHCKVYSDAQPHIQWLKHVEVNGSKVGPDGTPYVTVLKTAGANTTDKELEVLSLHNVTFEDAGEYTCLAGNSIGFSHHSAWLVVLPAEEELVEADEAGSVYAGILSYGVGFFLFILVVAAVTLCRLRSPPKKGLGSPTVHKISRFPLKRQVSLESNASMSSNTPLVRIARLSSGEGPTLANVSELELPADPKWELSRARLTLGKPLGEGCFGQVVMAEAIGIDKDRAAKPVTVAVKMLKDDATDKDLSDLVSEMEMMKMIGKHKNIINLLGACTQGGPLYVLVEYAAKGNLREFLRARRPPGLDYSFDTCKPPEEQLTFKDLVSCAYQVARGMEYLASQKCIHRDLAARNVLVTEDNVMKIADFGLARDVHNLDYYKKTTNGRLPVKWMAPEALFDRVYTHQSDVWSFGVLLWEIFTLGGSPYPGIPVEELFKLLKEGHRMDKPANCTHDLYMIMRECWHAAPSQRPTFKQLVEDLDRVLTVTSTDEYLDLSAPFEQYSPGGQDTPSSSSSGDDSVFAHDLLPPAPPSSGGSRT
Chain of Jak2 (O60674 whole entry, looked up): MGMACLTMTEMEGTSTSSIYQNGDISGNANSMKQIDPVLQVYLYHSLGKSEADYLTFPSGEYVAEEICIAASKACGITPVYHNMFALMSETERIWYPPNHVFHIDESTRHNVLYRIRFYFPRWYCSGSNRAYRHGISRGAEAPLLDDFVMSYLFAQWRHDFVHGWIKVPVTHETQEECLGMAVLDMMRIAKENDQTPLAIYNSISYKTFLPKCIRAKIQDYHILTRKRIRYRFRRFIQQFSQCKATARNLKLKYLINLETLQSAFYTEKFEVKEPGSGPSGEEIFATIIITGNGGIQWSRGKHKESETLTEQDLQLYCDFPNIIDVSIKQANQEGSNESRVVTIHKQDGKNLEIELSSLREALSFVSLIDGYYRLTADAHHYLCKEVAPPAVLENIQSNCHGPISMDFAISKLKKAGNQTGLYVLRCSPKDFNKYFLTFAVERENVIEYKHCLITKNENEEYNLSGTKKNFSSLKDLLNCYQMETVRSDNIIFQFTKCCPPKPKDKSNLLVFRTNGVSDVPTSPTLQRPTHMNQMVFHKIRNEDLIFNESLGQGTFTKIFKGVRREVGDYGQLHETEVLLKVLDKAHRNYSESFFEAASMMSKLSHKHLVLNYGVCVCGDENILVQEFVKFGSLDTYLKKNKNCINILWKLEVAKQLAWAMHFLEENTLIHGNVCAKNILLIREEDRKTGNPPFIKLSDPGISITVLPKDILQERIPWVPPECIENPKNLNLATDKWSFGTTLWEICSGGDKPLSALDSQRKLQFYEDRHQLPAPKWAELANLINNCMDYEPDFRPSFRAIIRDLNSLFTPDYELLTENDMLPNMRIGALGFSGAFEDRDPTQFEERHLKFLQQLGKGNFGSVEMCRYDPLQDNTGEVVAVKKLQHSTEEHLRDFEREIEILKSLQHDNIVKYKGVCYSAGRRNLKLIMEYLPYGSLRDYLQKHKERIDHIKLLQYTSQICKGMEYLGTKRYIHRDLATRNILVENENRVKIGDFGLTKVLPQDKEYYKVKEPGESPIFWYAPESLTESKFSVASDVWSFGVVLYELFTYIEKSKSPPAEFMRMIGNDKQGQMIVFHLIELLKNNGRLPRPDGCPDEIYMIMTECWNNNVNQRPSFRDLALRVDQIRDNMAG
Chain of Hck (P08631 whole entry, looked up): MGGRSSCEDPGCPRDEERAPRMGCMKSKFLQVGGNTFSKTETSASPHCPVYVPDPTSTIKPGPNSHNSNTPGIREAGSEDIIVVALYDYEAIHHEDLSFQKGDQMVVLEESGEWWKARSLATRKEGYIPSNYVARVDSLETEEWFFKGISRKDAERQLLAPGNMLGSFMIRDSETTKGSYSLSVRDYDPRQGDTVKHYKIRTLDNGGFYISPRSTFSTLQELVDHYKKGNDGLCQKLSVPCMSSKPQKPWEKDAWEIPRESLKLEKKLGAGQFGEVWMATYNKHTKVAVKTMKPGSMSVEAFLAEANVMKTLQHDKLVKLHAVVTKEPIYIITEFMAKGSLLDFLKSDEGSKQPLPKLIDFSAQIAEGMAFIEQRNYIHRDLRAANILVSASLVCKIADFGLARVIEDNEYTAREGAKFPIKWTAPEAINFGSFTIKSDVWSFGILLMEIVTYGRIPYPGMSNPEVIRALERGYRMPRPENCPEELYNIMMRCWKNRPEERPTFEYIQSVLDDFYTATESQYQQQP
Chain of MERTK (Q12866 whole entry, looked up): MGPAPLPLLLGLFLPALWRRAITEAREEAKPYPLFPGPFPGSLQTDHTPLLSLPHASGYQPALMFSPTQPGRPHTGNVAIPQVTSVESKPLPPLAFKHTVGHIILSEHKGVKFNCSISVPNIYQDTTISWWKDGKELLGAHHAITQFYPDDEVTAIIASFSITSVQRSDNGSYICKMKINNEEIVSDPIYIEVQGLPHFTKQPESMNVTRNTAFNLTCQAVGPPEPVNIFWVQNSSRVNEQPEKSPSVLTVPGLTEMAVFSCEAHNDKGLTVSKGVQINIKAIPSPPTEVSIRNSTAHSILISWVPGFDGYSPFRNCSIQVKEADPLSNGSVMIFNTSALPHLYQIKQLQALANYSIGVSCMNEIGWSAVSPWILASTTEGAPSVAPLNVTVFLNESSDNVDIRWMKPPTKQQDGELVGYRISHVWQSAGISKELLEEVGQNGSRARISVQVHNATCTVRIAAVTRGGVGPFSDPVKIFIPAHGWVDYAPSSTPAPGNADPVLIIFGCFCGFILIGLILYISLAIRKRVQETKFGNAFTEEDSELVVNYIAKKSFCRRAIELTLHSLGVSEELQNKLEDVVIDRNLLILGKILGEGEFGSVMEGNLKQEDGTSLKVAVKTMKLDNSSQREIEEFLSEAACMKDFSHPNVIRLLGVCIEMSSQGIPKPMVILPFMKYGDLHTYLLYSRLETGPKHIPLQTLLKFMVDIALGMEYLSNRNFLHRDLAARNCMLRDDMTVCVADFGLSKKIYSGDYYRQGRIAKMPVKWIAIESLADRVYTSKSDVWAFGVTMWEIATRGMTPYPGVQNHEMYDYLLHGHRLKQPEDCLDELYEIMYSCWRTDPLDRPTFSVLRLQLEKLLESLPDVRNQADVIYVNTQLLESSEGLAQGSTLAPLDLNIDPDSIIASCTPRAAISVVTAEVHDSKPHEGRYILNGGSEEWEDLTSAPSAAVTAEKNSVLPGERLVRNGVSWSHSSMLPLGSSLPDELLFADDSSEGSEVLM
Chain of Fyn (P06241 whole entry, looked up): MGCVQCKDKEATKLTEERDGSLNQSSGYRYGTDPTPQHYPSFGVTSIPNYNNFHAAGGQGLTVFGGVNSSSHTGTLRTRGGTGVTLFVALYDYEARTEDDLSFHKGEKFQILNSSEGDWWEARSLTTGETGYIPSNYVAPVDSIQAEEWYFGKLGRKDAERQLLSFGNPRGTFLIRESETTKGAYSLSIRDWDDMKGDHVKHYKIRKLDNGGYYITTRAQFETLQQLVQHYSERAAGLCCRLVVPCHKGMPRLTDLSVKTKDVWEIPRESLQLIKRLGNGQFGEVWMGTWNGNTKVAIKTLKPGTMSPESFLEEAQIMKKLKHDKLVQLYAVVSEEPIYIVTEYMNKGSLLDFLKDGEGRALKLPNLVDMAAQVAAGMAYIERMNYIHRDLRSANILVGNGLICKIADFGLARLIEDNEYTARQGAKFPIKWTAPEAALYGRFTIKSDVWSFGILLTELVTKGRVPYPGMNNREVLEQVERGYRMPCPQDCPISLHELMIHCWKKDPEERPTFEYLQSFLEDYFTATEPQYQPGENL

- SH2 binding enrichment (Grb2 SH2): 0.727
- SH2 binding enrichment (SHP2-C SH2): 0.632
- SH2 binding enrichment (c-Src SH2): 0.57
Sequence: APNEFYDGDHD [HDAC3_Y414]
- phosphorylation enrichment (AncSZ): 1.3
- phosphorylation enrichment (EPHB1): 0.613
- phosphorylation enrichment (EPHB2): 0.605
- phosphorylation enrichment (FGFR1): 0.624
- phosphorylation enrichment (FGFR3): 1.18
- phosphorylation enrichment (Fer (mouse)): 0.59
- phosphorylation enrichment (Fes): 1.29
- phosphorylation enrichment (Fyn): 0.535
- phosphorylation enrichment (Hck): 0.769
- phosphorylation enrichment (Jak2): 1.32
- phosphorylation enrichment (MERTK): 0.602
- phosphorylation enrichment (c-Abl (mouse)): 1.04
- phosphorylation enrichment (c-Src): 0.574

- SH2 binding enrichment (Grb2 SH2): 0.912
- SH2 binding enrichment (SHP2-C SH2): 1.08
- SH2 binding enrichment (c-Src SH2): 0.413
Sequence: LSKDLYLISQM [LARP4_Y141]
- phosphorylation enrichment (AncSZ): 1.78
- phosphorylation enrichment (EPHB1): 1.59
- phosphorylation enrichment (EPHB2): 1.29
- phosphorylation enrichment (FGFR1): 0.933
- phosphorylation enrichment (FGFR3): 1.41
- phosphorylation enrichment (Fer (mouse)): 0.918
- phosphorylation enrichment (Fes): 1.63
- phosphorylation enrichment (Fyn): 0.828
- phosphorylation enrichment (Hck): 0.836
- phosphorylation enrichment (Jak2): 1.28
- phosphorylation enrichment (MERTK): 0.703
- phosphorylation enrichment (c-Abl (mouse)): 1.06
- phosphorylation enrichment (c-Src): 0.639

- SH2 binding enrichment (Grb2 SH2): 1.48
- SH2 binding enrichment (SHP2-C SH2): 6.08
- SH2 binding enrichment (c-Src SH2): 2.11
Sequence: TTPGPYRSIYF [MPG_Y71]
- phosphorylation enrichment (AncSZ): 0.595
- phosphorylation enrichment (EPHB1): 0.268
- phosphorylation enrichment (EPHB2): 0.278
- phosphorylation enrichment (FGFR1): 0.44
- phosphorylation enrichment (FGFR3): 0.515
- phosphorylation enrichment (Fer (mouse)): 0.54
- phosphorylation enrichment (Fes): 1
- phosphorylation enrichment (Fyn): 0.641
- phosphorylation enrichment (Hck): 0.662
- phosphorylation enrichment (Jak2): 0.433
- phosphorylation enrichment (MERTK): 0.422
- phosphorylation enrichment (c-Abl (mouse)): 0.547
- phosphorylation enrichment (c-Src): 1.27

- SH2 binding enrichment (Grb2 SH2): 0.846
- SH2 binding enrichment (SHP2-C SH2): 0.984
- SH2 binding enrichment (c-Src SH2): 0.884
Sequence: RLSVDCGKKSK [TUBA4A_Y161_Y161C]
- phosphorylation enrichment (AncSZ): 0.684
- phosphorylation enrichment (EPHB1): 1.03
- phosphorylation enrichment (EPHB2): 0.619
- phosphorylation enrichment (FGFR1): 0.444
- phosphorylation enrichment (FGFR3): 0.788
- phosphorylation enrichment (Fer (mouse)): 0.571
- phosphorylation enrichment (Fes): 0.825
- phosphorylation enrichment (Fyn): 0.551
- phosphorylation enrichment (Hck): 0.462
- phosphorylation enrichment (Jak2): 1.1
- phosphorylation enrichment (MERTK): 0.432
- phosphorylation enrichment (c-Abl (mouse)): 0.828
- phosphorylation enrichment (c-Src): 0.471

- SH2 binding enrichment (Grb2 SH2): 0.711
- SH2 binding enrichment (SHP2-C SH2): 3.84
- SH2 binding enrichment (c-Src SH2): 3.44
Sequence: HFGNNYTDVLQ [MACC1_Y803_R804T_YF]
- phosphorylation enrichment (AncSZ): 0.874
- phosphorylation enrichment (EPHB1): 1.61
- phosphorylation enrichment (EPHB2): 0.471
- phosphorylation enrichment (FGFR1): 0.544
- phosphorylation enrichment (FGFR3): 0.733
- phosphorylation enrichment (Fer (mouse)): 0.573
- phosphorylation enrichment (Fes): 0.967
- phosphorylation enrichment (Fyn): 0.517
- phosphorylation enrichment (Hck): 0.426
- phosphorylation enrichment (Jak2): 0.578
- phosphorylation enrichment (MERTK): 0.638
- phosphorylation enrichment (c-Abl (mouse)): 0.761
- phosphorylation enrichment (c-Src): 0.66

- SH2 binding enrichment (Grb2 SH2): 0.619
- SH2 binding enrichment (SHP2-C SH2): 0.49
- SH2 binding enrichment (c-Src SH2): 0.432
Sequence: HFECKYVINAI [MAOA_Y268_YF]
- phosphorylation enrichment (AncSZ): 2.43
- phosphorylation enrichment (EPHB1): 1.14
- phosphorylation enrichment (EPHB2): 0.762
- phosphorylation enrichment (FGFR1): 0.627
- phosphorylation enrichment (FGFR3): 0.998
- phosphorylation enrichment (Fer (mouse)): 0.502
- phosphorylation enrichment (Fes): 1.87
- phosphorylation enrichment (Fyn): 0.709
- phosphorylation enrichment (Hck): 0.566
- phosphorylation enrichment (Jak2): 1.47
- phosphorylation enrichment (MERTK): 0.529
- phosphorylation enrichment (c-Abl (mouse)): 1.23
- phosphorylation enrichment (c-Src): 0.648

- SH2 binding enrichment (Grb2 SH2): 0.919
- SH2 binding enrichment (SHP2-C SH2): 1.14
- SH2 binding enrichment (c-Src SH2): 1.02
Sequence: TLKVGYKEKQR [EPHA3_Y659_T660K]
- phosphorylation enrichment (AncSZ): 0.367
- phosphorylation enrichment (EPHB1): 0.45
- phosphorylation enrichment (EPHB2): 0.366
- phosphorylation enrichment (FGFR1): 0.348
- phosphorylation enrichment (FGFR3): 0.555
- phosphorylation enrichment (Fer (mouse)): 0.358
- phosphorylation enrichment (Fes): 0.699
- phosphorylation enrichment (Fyn): 0.333
- phosphorylation enrichment (Hck): 0.328
- phosphorylation enrichment (Jak2): 0.812
- phosphorylation enrichment (MERTK): 0.37
- phosphorylation enrichment (c-Abl (mouse)): 0.547
- phosphorylation enrichment (c-Src): 0.334

- SH2 binding enrichment (Grb2 SH2): 0.85
- SH2 binding enrichment (SHP2-C SH2): 1.12
- SH2 binding enrichment (c-Src SH2): 0.362
Sequence: LEGKEYRMSGE [KRT3_Y511_E509K]
- phosphorylation enrichment (AncSZ): 0.73
- phosphorylation enrichment (EPHB1): 0.434
- phosphorylation enrichment (EPHB2): 0.333
- phosphorylation enrichment (FGFR1): 0.432
- phosphorylation enrichment (FGFR3): 0.618
- phosphorylation enrichment (Fer (mouse)): 0.455
- phosphorylation enrichment (Fes): 0.985
- phosphorylation enrichment (Fyn): 0.456
- phosphorylation enrichment (Hck): 0.409
- phosphorylation enrichment (Jak2): 0.923
- phosphorylation enrichment (MERTK): 0.439
- phosphorylation enrichment (c-Abl (mouse)): 0.583
- phosphorylation enrichment (c-Src): 0.415

The remaining lines, values behind:

Sequence: NPQKSYLIRLF [WAS_Y83_F84L_YF]
- phosphorylation enrichment (AncSZ): 0.768
- phosphorylation enrichment (EPHB1): 0.462
- phosphorylation enrichment (EPHB2): 0.484
- phosphorylation enrichment (FGFR1): 0.439
- phosphorylation enrichment (FGFR3): 0.696
- phosphorylation enrichment (Fer (mouse)): 0.448
- phosphorylation enrichment (Fes): 0.957
- phosphorylation enrichment (Fyn): 0.398
- phosphorylation enrichment (Hck): 0.407
- phosphorylation enrichment (Jak2): 0.681
- phosphorylation enrichment (MERTK): 0.413
- phosphorylation enrichment (c-Abl (mouse)): 0.523
- phosphorylation enrichment (c-Src): 0.38
- SH2 binding enrichment (Grb2 SH2): 1.03
- SH2 binding enrichment (SHP2-C SH2): 0.822
- SH2 binding enrichment (c-Src SH2): 0.672

Sequence: PTTKTYFLHFD [HBA1_Y43_P45L]
- phosphorylation enrichment (AncSZ): 1.66
- phosphorylation enrichment (EPHB1): 1.34
- phosphorylation enrichment (EPHB2): 1.14
- phosphorylation enrichment (FGFR1): 3.23
- phosphorylation enrichment (FGFR3): 2.62
- phosphorylation enrichment (Fer (mouse)): 0.532
- phosphorylation enrichment (Fes): 1.79
- phosphorylation enrichment (Fyn): 0.813
- phosphorylation enrichment (Hck): 0.816
- phosphorylation enrichment (Jak2): 1.98
- phosphorylation enrichment (MERTK): 0.844
- phosphorylation enrichment (c-Abl (mouse)): 1.51
- phosphorylation enrichment (c-Src): 0.695
- SH2 binding enrichment (Grb2 SH2): 1.36
- SH2 binding enrichment (SHP2-C SH2): 1.35
- SH2 binding enrichment (c-Src SH2): 0.985

Sequence: QSVEPYTKQQL [STAT3_Y640]
- phosphorylation enrichment (AncSZ): 0.715
- phosphorylation enrichment (EPHB1): 0.614
- phosphorylation enrichment (EPHB2): 0.695
- phosphorylation enrichment (FGFR1): 0.553
- phosphorylation enrichment (FGFR3): 0.558
- phosphorylation enrichment (Fer (mouse)): 0.543
- phosphorylation enrichment (Fes): 0.783
- phosphorylation enrichment (Fyn): 0.536
- phosphorylation enrichment (Hck): 0.641
- phosphorylation enrichment (Jak2): 0.755
- phosphorylation enrichment (MERTK): 0.709
- phosphorylation enrichment (c-Abl (mouse)): 0.81
- phosphorylation enrichment (c-Src): 0.626
- SH2 binding enrichment (Grb2 SH2): 0.978
- SH2 binding enrichment (SHP2-C SH2): 0.649
- SH2 binding enrichment (c-Src SH2): 0.528

Sequence: QELRRYLKSSV [MICA_Y194_G198S]
- phosphorylation enrichment (AncSZ): 0.543
- phosphorylation enrichment (EPHB1): 0.322
- phosphorylation enrichment (EPHB2): 0.349
- phosphorylation enrichment (FGFR1): 0.44
- phosphorylation enrichment (FGFR3): 0.483
- phosphorylation enrichment (Fer (mouse)): 0.292
- phosphorylation enrichment (Fes): 0.6
- phosphorylation enrichment (Fyn): 0.36
- phosphorylation enrichment (Hck): 0.653
- phosphorylation enrichment (Jak2): 0.457
- phosphorylation enrichment (MERTK): 0.213
- phosphorylation enrichment (c-Abl (mouse)): 0.349
- phosphorylation enrichment (c-Src): 0.298
- SH2 binding enrichment (Grb2 SH2): 0.732
- SH2 binding enrichment (SHP2-C SH2): 0.502
- SH2 binding enrichment (c-Src SH2): 0.426

Sequence: EIKLAYRRRPP [GRIN2B_Y1109_E1106K]
- phosphorylation enrichment (AncSZ): 0.735
- phosphorylation enrichment (EPHB1): 0.568
- phosphorylation enrichment (EPHB2): 0.617
- phosphorylation enrichment (FGFR1): 0.537
- phosphorylation enrichment (FGFR3): 0.584
- phosphorylation enrichment (Fer (mouse)): 0.98
- phosphorylation enrichment (Fes): 0.532
- phosphorylation enrichment (Fyn): 0.526
- phosphorylation enrichment (Hck): 0.789
- phosphorylation enrichment (Jak2): 0.861
- phosphorylation enrichment (MERTK): 0.652
- phosphorylation enrichment (c-Abl (mouse)): 0.756
- phosphorylation enrichment (c-Src): 0.885
- SH2 binding enrichment (Grb2 SH2): 0.708
- SH2 binding enrichment (SHP2-C SH2): 0.525
- SH2 binding enrichment (c-Src SH2): 0.362

Sequence: RHFTTYDTNGR [CLCA1_Y665_Y661H]
- phosphorylation enrichment (AncSZ): 0.93
- phosphorylation enrichment (EPHB1): 0.609
- phosphorylation enrichment (EPHB2): 0.97
- phosphorylation enrichment (FGFR1): 0.808
- phosphorylation enrichment (FGFR3): 0.755
- phosphorylation enrichment (Fer (mouse)): 0.594
- phosphorylation enrichment (Fes): 0.938
- phosphorylation enrichment (Fyn): 1.01
- phosphorylation enrichment (Hck): 0.835
- phosphorylation enrichment (Jak2): 0.844
- phosphorylation enrichment (MERTK): 0.707
- phosphorylation enrichment (c-Abl (mouse)): 0.618
- phosphorylation enrichment (c-Src): 0.876
- SH2 binding enrichment (Grb2 SH2): 0.716
- SH2 binding enrichment (SHP2-C SH2): 0.642
- SH2 binding enrichment (c-Src SH2): 0.494

Sequence: AALVQYYMEHH [PTPN11_Y80_E76A]
- phosphorylation enrichment (AncSZ): 0.937
- phosphorylation enrichment (EPHB1): 1.9
- phosphorylation enrichment (EPHB2): 1.17
- phosphorylation enrichment (FGFR1): 0.722
- phosphorylation enrichment (FGFR3): 0.767
- phosphorylation enrichment (Fer (mouse)): 0.415
- phosphorylation enrichment (Fes): 0.912
- phosphorylation enrichment (Fyn): 0.529
- phosphorylation enrichment (Hck): 0.813
- phosphorylation enrichment (Jak2): 0.745
- phosphorylation enrichment (MERTK): 0.68
- phosphorylation enrichment (c-Abl (mouse)): 0.49
- phosphorylation enrichment (c-Src): 0.541
- SH2 binding enrichment (Grb2 SH2): 0.991
- SH2 binding enrichment (SHP2-C SH2): 1.16
- SH2 binding enrichment (c-Src SH2): 0.742
